B1: Androgen receptor, residues 557 to 632; numbered along this chain, P10275 (parent)
chain: QKTCLICGDEASGCHYGALTCGSCKVFFKRAAEGKQKYLCASRNDCTIDKFRRKNCPSCRLRKCYEAGMTLGARKL

Variants of: B1
Experiment: abundance fitness (aPCA) (normalised: wild type 0, dead -1); higher = more abundant; growth selection in yeast, the domain comes from the species named
Details: Homo sapiens

Abundance fitness of substitutions, site by site:
G22: S -0.048 | K -0.114 | F -0.322 | P -0.026 | D -0.033 | R -0.166 | A -0.025 | E 0.064 | Q -0.037 | Y -0.207 | M -0.163 | H -0.152 | T -0.06 | I -0.262 | V -0.141 | C -0.064 | W -0.034
K29: S -0.248 | H -0.024 | M -0.245 | E 0.202 | W 0.035 | Q -0.169 | N -0.123 | R -0.075 | V -0.215 | G -0.039 | P -0.377 | Y -0.148 | D -0.258 | F 0.019 | L -0.331 | C -0.49 | I -0.353
R30: V -0.066 | P -0.395 | K 0.103 | D -0.066 | T 0.01 | I -0.067 | F 0.03 | L 0.099 | A -0.094 | W -0.114 | Y -0.191 | N 0.014 | S -0.016 | E 0.019 | H 0.114 | Q -0.029
F27: E -0.73 | D -0.519 | P -0.655 | K -0.816 | T -0.91 | W -0.387 | M -1.01 | L -0.766 | A -0.729 | I -0.548 | Q -0.839 | R -0.977 | G -0.884 | H -0.805 | S -0.983 | C -0.833 | Y -0.598
L19: R -0.006 | M -0.03 | V -0.035 | Y -0.101 | P -0.106 | S -0.109 | A -0.063 | D -0.048 | Q 0.059 | K -0.015 | T -0.017 | E 0.034 | G -0.399 | N -0.065 | C -0.19 | W 0.029 | I -0.034
Y16: D -0.355 | R -0.684 | V -0.609 | H -0.333 | T -0.445 | M -0.11 | A -0.397 | W -0.122 | G -0.432 | C -0.566 | L -0.275 | Q -0.487 | N -0.307 | K -0.473 | P -0.455 | S -0.408
H15: A -0.151 | E 0.099 | T 0.045 | L -0.211 | I -0.063 | R -0.221 | P -0.27 | G -0.151 | V -0.182 | M -0.088 | Q -0.175 | K -0.106 | Y -0.237 | N -0.157 | W 0.097 | C -0.037 | D -0.177
A18: L -0.155 | G -0.335 | Q -0.223 | C -0.084 | F -0.684 | I 0.124 | E -0.617 | R -0.24 | Y -0.776 | W -1.07 | V -0.04 | H -0.799 | P -0.26 | S -0.142 | D -0.232
D9: H 0.138 | Y -0.609 | R -0.378 | E -0.171 | S -0.061 | A -0.089 | L -0.626 | F -0.562 | V -0.201 | G -0.182 | I -0.109 | W -0.289 | K -0.53 | Q -0.071 | N -0.008 | C -0.053
C24: N -0.904 | S -1.1 | D -0.695 | M -0.964 | G -0.907 | Y -1.08 | H -0.891 | I -0.904 | F -1.06 | K -0.957 | Q -0.932 | W -0.903 | E -0.909 | V -0.907 | L -0.898 | A -0.96 | T -0.902 | P -0.853
S12: D -0.031 | M -0.026 | C -0.305 | I -0.091 | H -0.237 | N 0.21 | R -0.06 | V -0.025 | W -0.181 | P -0.077 | Y -0.031 | Q 0.049 | G -0.056 | F -0.389 | L 0.055 | K -0.054 | E 0.047 | A -0.046 | T -0.149
C14: R -0.142 | A -0.013 | Q -0.133 | E 0.002 | N -0.351 | L 0 | P -0.057 | I 0.085 | F -0.1 | D 0.081 | H -0.035 | M -0.087 | S -0.105 | V -0.231 | G -0.11 | W -0.419 | T 0.099
C21: L -0.993 | I -0.777 | Y -0.849 | Q -0.564 | T -0.81 | G -0.976 | H -0.602 | M -0.953 | E -0.68 | W -0.694 | S -1.05 | A -0.732 | D -1.23 | P -1.21 | V -0.754 | K -0.988 | R -0.895
T20: Q -0.856 | A -0.041 | K -0.755 | W -0.637 | C 0.002 | P -0.724 | V 0.04 | M -1 | E -0.825 | I -0.035 | S 0.047 | G -0.539 | H -0.299 | N -0.441 | R -0.859 | L -0.166
K25: H -0.011 | I -0.24 | F -0.062 | T 0.005 | N 0.014 | V -0.043 | E 0.044 | W -0.077 | C 0.012 | L -0.099 | A 0.026 | G 0.013 | D -0.025 | S 0.03 | M 0.013 | R -0.066
S23: Q -0.084 | A -0.163 | T -0.233 | C -0.185 | W -0.137 | G -0.054 | M -0.137 | L -0.283 | D -0.069 | I -0.836 | H -0.036 | N -0.108 | K -0.142 | E -0.013 | Y -0.122 | F -0.11
V26: D 0.043 | F -0.13 | M 0.053 | W -0.181 | R 0.019 | H 0.039 | E 0.014 | N 0.069 | T -0.002 | Q 0.007 | S 0.038 | C -0.012 | P -0.772 | I 0.013 | L 0.008 | A -0.108 | G -0.001 | K 0.058
G17: P -0.691 | R -0.33 | N -0.061 | W -0.645 | L -0.552 | T -0.411 | S -0.319 | M -0.229 | Q -0.357
G8: S -0.165 | L -0.146 | Q -0.463 | K -0.111 | Y 0.036 | N -0.29 | T -0.31 | R -0.43 | W -0.529 | V -0.868
A31: S -0.024 | K -0.627 | R -0.486 | T 0.025 | M -0.182 | D -0.503 | F -0.214 | N -0.144 | I -0.387 | L -0.225 | H -0.102 | E -0.093 | G -0.086 | Q -0.075 | C -0.072 | P -0.519
G13: N -0.201 | L -0.115 | I -0.416 | C -0.311 | E -0.274 | W -0.571 | M -0.163 | D -0.198 | K -0.229 | T -0.057 | R -0.2 | A -0.167 | V -0.061 | S -0.034

— the Human Domainome abundance scans (Beltran et al. 2025)
